T1: MBP-ZFP57 DNA binding domain (Glu87-Ala195) (Mus musculus, UniProt Q8C6P8 87-195)
T1 sequence: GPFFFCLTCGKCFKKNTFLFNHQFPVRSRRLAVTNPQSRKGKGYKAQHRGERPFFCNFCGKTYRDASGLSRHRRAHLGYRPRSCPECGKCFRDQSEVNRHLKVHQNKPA

B1: Methylated 1G (dsDNA)
DNA 1: GTAATATGGCCGCAGTAATA
DNA 2: TATTACTGCGGCCATATTAC
modifications: 5mC at top 11 and bottom 9
B2: Methylated Commd1 (dsDNA)
DNA 1: GTAACTGCGGCCGCCCCACA
DNA 2: TGTGGGGCGGCCGCAGTTAC
modifications: 5mC at top 8, 12 and bottom 12, 8 (5'-based)
B3: Methylated Control (dsDNA)
DNA 1: GTAATATTGCCGCAGTAATA
DNA 2: TATTACTGCGGCAATATTAC
modifications: 5mC at top 11 and bottom 9 (5'-based; printed Z)
B4: Methylated Ston2 JF1 (dsDNA)
DNA 1: CTGGGGCGGCAGTTGCCGCAGATGG
DNA 2: CCATCTGCGGCAACTGCCGCCCCAG
modifications: 5mC at top 7, 17; methylated bottom strand not in material

Experiments:
[1] = biological target: T1, MBP-ZFP57 DNA binding domain …; assay: EMSA; EMSA: 25 pmol protein, 2.5 pmol dsDNA, 25 mM HEPES pH 7.9, 50 mM KCl, 6.25 mM MgCl2, 5% glycerol, on ice 10 min; 5% PAGE, SYBR Green stain; conditions: protein: recombinant; blunt
[2] = biological target: T1, MBP-ZFP57 DNA binding domain …; assay: EMSA; lower efficiency than control TGCCGC; EMSA: 25 pmol protein, 2.5 pmol dsDNA, 25 mM HEPES pH 7.9, 50 mM KCl, 6.25 mM MgCl2, 5% glycerol, on ice 10 min; 5% PAGE, SYBR Green stain; conditions: protein: recombinant; blunt

Binder | binding result [1] | binding result [2]
B1 | binds | 
B2 |  | binds
B3 | binds | 
B4 | binds | 
